From patent US9290743B2, “L-aspartate oxidase variant and a method for producing quinolinate or nicotinic acid using the same” (CJ CHEILJEDANG CORP., priority 2013, dated 2016)

Test system: L-aspartate oxidase
Assay: Activity test of L-aspartate oxidase variants (H2O2, Amplex Red, absorbance at 560 nm) with NAD added
Assay type: biochemical, E. coli
Protocol: After the recombinant vector pT7-nadB, pT7-nadB67, pT7-nadB67(V), pT7-nadB67(L), pT7-nadB67(I), or pT7-nadB67(H) was transformed into a tuner strain via CaCl2 method, the transformed strain was smeared on a LB-SP (yeast extract 10 g/L, NaCl 5 g/L, tryptone 10 g/L, and spectinomycin […]) plate medium, and cultured overnight at 37[…] to select spectinomycin-resistant colonies. One colony was selected from them and cultured in a LB-SP (yeast extract 10 g/L, NaCl 5 g/L, tryptone 10 g/L, spectinomycin […]) liquid medium, and then a isopropyl-1-thio-β-D-galactopyranoside (IPTG) derivative was added thereto when the growth optical density (OD) value reached to 0.4, and cultured at about 18[…] overnight. Cells including the overexpressed wild type L-aspartate oxidase and L-aspartate oxidase variants were recovered from the culture medium, followed by purification of the wild type L-aspartate oxidase and L-aspartate oxidase variants from the recovered cells by Ni-NTA spin kit (Quiagen, U.S.A). The recovered protein was 50% of a total protein, about 2% of the recovered protein was recovered as L-aspartate oxidase.
The L-aspartate oxidase converts aspartate as a substrate to iminoaspartate in the presence of an FAD as cofactor, and the imminoaspartate is converted b to oxaloacetate. Hydrogen peroxide (H2O2), that is generated through the above-described reaction, was used to identify the activity of the nadB. Absorbance at 560 nm of a reaction product of H2O2 with a product from the reaction was measured using an Amplex Red (Invitrogen, Korea) to determine the activity of the nadB. Here, NAD was added at different concentrations to create a condition for competitive inhibition to FAD so as to evaluate the resistance of L-aspartate oxidase against the feedback regulation by NAD.

B1: Wild type-nadB: His-tagged wild type E. coli L-aspartate oxidase (SEQ ID NO: 1) purified from pT7-nadB expression (protein)
chain: MNTLPEHSCDVLIIGSGAAGLSLALRLADQHQVIVLSKGPVTEGSTFYAQGGIAAVFDETDSIDSHVEDTLIAGAGICDRHAVEFVASNARSCVQWLIDQGVLFDTHIQPNGEESYHLTREGGHSHRRILHAADATGREVETTLVSKALNHPNIRVLERSNAVDLIVSDKIGLPGTRRVVGAWVWNRNKETVETCHAKAVVLATGGASKVYQYTTNPDISSGDGIAMAWRAGCRVANLEFNQFHPTALYHPQARNFLLTEALRGEGAYLKRPDGTRFMPDFDERGELAPRDIVARAIDHEMKRLGADCMFLDISHKPADFIRQHFPMIYEKLLGLGIDLTQEPVPIVPAAHYTCGGVMVDDHGRTDVEGLYAIGEVSYTGLHGANRMASNSLLECLVYGWSAAEDITRRMPYAHDISTLPPWDESRVENPDERVVIQHNWHELRLFMWDYVGIVRTTKRLERALRRITMLQQEIDEYYAHFRVSNNLLELRNLVQVAELIVRCAMMRKESRGLHFTLDYPELLTHSGPSILSPGNHYINR
modifications: His tag; amino acid sequence of nadB
Relative activity (NAD 0 mM): 100%
Relative activity (NAD 0.05 mM): 95%
Relative activity (NAD 0.3 mM): 82%
Relative activity (NAD 0.5 mM): 65%
Relative activity (NAD 1 mM): 22%
Relative activity (NAD 1 mM, listed as wild type L-aspartate oxidase): less than 50%
